Results reported in patent publication US9969998B2, “Compositions of adenosine deaminase-2 (ADA2), variants thereof and methods of using same” (Halozyme, Inc., priority 2014, dated 2018).
Read-outs that look alike come from different tables or passages of the source. Each block holds one molecule with its values, some of them ahead of it.

Tests used:
ADA2 = molecular target: T1, ADA2 (Homo sapiens, UniProt Q9NZK5); details: cited from earlier work
T1 sequence (Q9NZK5 30-511): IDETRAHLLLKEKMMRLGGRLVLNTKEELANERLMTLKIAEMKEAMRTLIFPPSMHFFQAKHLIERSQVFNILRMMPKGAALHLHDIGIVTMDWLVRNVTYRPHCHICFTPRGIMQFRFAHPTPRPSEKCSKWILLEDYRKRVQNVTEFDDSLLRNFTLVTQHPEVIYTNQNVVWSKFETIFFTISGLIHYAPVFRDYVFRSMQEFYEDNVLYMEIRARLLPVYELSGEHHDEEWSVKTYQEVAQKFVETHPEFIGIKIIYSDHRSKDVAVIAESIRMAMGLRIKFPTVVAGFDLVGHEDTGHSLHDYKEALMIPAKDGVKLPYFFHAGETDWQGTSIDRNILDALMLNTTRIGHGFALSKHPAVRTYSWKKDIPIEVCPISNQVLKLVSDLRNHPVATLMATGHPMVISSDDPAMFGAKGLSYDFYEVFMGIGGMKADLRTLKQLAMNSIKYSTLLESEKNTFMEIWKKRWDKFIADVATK

ADA1 = molecular target: T2, ADA1 (Homo sapiens, UniProt P00813); details: cited from earlier work
T2 sequence (P00813 1-363): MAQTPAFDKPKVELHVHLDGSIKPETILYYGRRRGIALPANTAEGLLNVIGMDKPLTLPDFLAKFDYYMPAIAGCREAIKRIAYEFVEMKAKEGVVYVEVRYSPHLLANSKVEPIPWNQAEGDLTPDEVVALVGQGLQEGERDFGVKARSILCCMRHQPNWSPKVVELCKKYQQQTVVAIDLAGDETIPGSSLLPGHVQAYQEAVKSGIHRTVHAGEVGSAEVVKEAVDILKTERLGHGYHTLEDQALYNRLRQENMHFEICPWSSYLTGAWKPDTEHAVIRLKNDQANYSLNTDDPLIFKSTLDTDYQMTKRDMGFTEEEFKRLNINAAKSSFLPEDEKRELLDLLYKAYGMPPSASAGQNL

[1] = Thermal stability by differential scanning fluorimetry (DSF); assay type: physicochemical; details: 0.1-1 mg/mL protein
Method: The stability of the rHuADA2 WT and variants was measured by differential scanning fluorimetry (DSF) at increasing temperatures. DSF measures conformational stability, which correlates with thermal stability. The melting temperature (Tm) in DSF is defined as the midpoint of the protein unfolding transition.
Non-PEGylated WT rHuADA2, non-PEGylated rHuADA2 variants, and PEGylated forms of WT rHuADA2 and rHuADA2 variants were prepared at concentrations of 0.1-1 mg/mL and mixed with the ROX™ protein thermal shift dye (Applied Biosystems, Carlsbad, Calif.; Cat. No. 4461146) to a final dye concentration that corresponds to a 125-fold dilution of the stock ROX™ solution. Protein samples were then loaded into 96-well plate at a volume of 20 μL/well in triplicate. A ViiA7 RT-PCR System (Applied Biosystems, Carlsbad, Calif.) was used to measure the shift in fluorescence as the temperature of the samples were increased. The reactions were subjected to the following steps: incubation at 25° C. for 2 min; ramping of temperature from 25 to 99° C. at a rate of 0.05° C. per second; followed by a 99° C. incubation for 2 min. The wavelengths used for emission and excitation were 623 nanometers (nm) and 580 nm, respectively.

[2] = Heparin binding capture ELISA (biotin-heparin on streptavidin plate); details: PEGylated and non-PEGylated forms (Table 22)
Method: Heparin binding of PEGylated rHuADA2 or variants was assessed by capture ELISA. Binding of rHuADA1 was assessed as a negative control. 100 μL of 0.2 mg/mL biotin-heparin (Sigma-Aldrich, St. Louis, Mo.; Cat No. B9806-10MG) was added to a streptavidin coated 96-well plate (Thermo Fisher Scientific, Rockford, Ill.; Cat. No. 15520), and incubated at room temperature for 1 hour. The plate was washed 6 times with PBS. Then, 150 μL of […] rHuADA2 was added to the heparin coated plate, titrated in 3× serial dilutions, and incubated at room temperature for 2 hours. The plate was then washed 6 times with PBS. A 1000× dilution of goat HRP-anti-FLAG pAb (Abcam, Cambridge, UK; Cat. No. Ab1238) was added to the ELISA plate and incubated at room temperature for 1 hour. The ELISA plate was then washed 6 times with phosphate buffered saline with Tween (PBST) and developed with the 3,3′,5,5′-Tetramethylbenzidine (TMB) substrate solution (Pierce, Thermo Fisher Scientific, Rockford, Ill.) according the manufacturer's instructions and reading the optical density at 450 nm (OD450) on a plate reader.

[3] = Adenosine deaminase (ADA) enzymatic activity assay kit; assay type: biochemical
[4] = mouse, in vivo, iv, 7.5 mg/kg
[5] = adenosine deaminase activity, cited from earlier work
[6] = cited from earlier work
[7] = Stability of ADA activity in plasma; assay type: in vitro ADME, mouse; details: long incubation (e.g., 24 hours) in plasma
Method: For therapeutic uses, such as for treatment of tumors or cancers, it is desirable to administer to the subject a dosage of ADA2 that will maintain plasma adenosine deaminase (ADA) activity for a sufficient time for therapeutic effect. […] The plasma stability of any ADA2 described herein, such as a wildtype, variant or conjugate, can be determined by measuring the changes in enzymatic activity and/or other physical properties, before and after incubation in plasma, e.g., ex vivo mammalian plasma.
Stability can be assessed in vitro or in vivo. For example, stability can be tested after exposure to plasma for a desired length of time, which can be empirically determined or selected by a skilled artisan depending on the desired length of time. For example, the incubation time can be at least 1 hour, such as at least 2, 3, 4, 5, 10, 15, 20, 24, 30, 36, 48, 60, 72 hours or more. The protein can be directly administered systemically, such as intravenously, and activity can be assessed. In other examples, the protein can be subject to appropriate incubation conditions in vitro. In one example, the stability of ADA activity of any ADA2 provided herein can be measured after incubation at 37° C., in 25% ex vivo plasma or serum, such as human or non-human plasma or serum, for example, mouse plasma. […]

[8] = Heparin binding ELISA (heparin coated microtiter plate); details: for Average OD450, heparin binding ELISA: 3 μM protein
How it was run: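 Plates coated with 200 μg/mL heparin in Na2CO3 buffer pH 9.6 overnight at 4° C, then milk-blocked. FLAG-tagged rHuADA2 variants added at 3 μM for 2 h at room temperature. Bound protein detected with HRP-anti-FLAG and TMB, read as OD450.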

[9] = 37° C.; for Plasma incubated mean adenosine deaminase activity: 0.17 mg/ml in 25% BALB/c mouse plasma; for PBS incubated mean adenosine deaminase activity: 0.17 mg/ml in PBS 0.2% BSA

Molecule: OC[C@H]1O[C@@H](n2cnc3c2N=CNC[C@H]3O)C[C@@H]1O [2′-deoxycoformycin]
inhibition of ADA2 (ADA2): potent inhibitors

Molecule: OC[C@H]1O[C@@H](n2cnc3c2N=CNC[C@H]3O)[C@H](O)[C@@H]1O [Coformycin]
inhibition of ADA1 (ADA1): potent inhibitors | inhibition of ADA2 (ADA2): potent inhibitors

Average OD450, heparin binding capture ELISA [2]: 0.75
B1: PEG-WT ADA2: WT rHuADA2 PEGylated with linear PEG-20K (conjugate, UniProt Q9NZK5 30-511, looked up)
Adenosine deaminase 2: T1 sequence (Q9NZK5 30-511)
modifications: linear PEG-20K
notes: WT rHuADA2 PEGylated with linear PEG-20K
Tm, melting temperature by DSF [1]: 68.81 °C | adenosine deaminase activity mU/mL ([3]; PEGylated and non-PEGylated forms (Table 23)): 124.2 mU/mL | % of WT adenosine deaminase activity ([3]; Table 23): 102.2% | AUC (mU * h)/mL [4]: 1,444,000 (mU * h)/mL | Half life slow (t1/2) [4]: 13.6 h | Percent increase in AUC compared to WT ADA2 [4]: 4291% | Percent increase in t1/2 compared to WT ADA2 [4]: 1078%

B2: ADA1: human adenosine deaminase 1, monomer, SEQ ID NO:12 (protein, listed as Homo sapiens)
chain: T2 sequence (P00813 1-363)
modifications: ADA1 protein; ref <300>: PUBLICATION INFORMATION:; ref <308>: DATABASE ACCESSION NUMBER: NCBI NP_000013.2; ref <309>: DATABASE ENTRY DATE: 2014-05-03
pH optimum [5]: ~7.5 | pH optimum ([5]; listed as ADA′): 7.5 | Km ([6]; for adenosine, wild-type enzyme in humans, read-out: Km): ~52 µM | Km ([6]; read-out: Km for adenosine): ~100 µM | stability in plasma [7]: substantially less stable

Average OD450, heparin binding ELISA ([8]; Set 1): 0.07 | Average OD450, heparin binding ELISA ([8]; Set 2): 0.06 | Heparin Binding ELISA Average OD450 ([8]; single and S265N combination variants (Table 34)): −0.02 | Average OD450, heparin binding capture ELISA [2]: <0.02
B3: WT ADA1: recombinant human adenosine deaminase 1 with Strep-tag, mature SEQ ID NO:66/67 (protein, listed as Homo sapiens)
chain 1: AQTPAFDKPKVELHVHLDGSIKPETILYYGRRRGIALPANTAEGLLNVIGMDKPLTLPDFLAKFDYYMPAIAGCREAIKRIAYEFVEMKAKEGVVYVEVRYSPHLLANSKVEPIPWNQAEGDLTPDEVVALVGQGLQEGERDFGVKARSILCCMRHQPNWSPKVVELCKKYQQQTVVAIDLAGDETIPGSSLLPGHVQAYQEAVKSGIHRTVHAGEVGSAEVVKEAVDILKTERLGHGYHTLEDQALYNRLRQENMHFEICPWSSYLTGAWKPDTEHAVIRLKNDQANYSLNTDDPLIFKSTLDTDYQMTKRDMGFTEEEFKRLNINAAKSSFLPEDEKRELLDLLYKAYGMPPSASAGQNL
chain 2: AQTPAFDKPKVELHVHLDGSIKPETILYYGRRRGIALPANTAEGLLNVIGMDKPLTLPDFLAKFDYYMPAIAGCREAIKRIAYEFVEMKAKEGVVYVEVRYSPHLLANSKVEPIPWNQAEGDLTPDEVVALVGQGLQEGERDFGVKARSILCCMRHQPNWSPKVVELCKKYQQQTVVAIDLAGDETIPGSSLLPGHVQAYQEAVKSGIHRTVHAGEVGSAEVVKEAVDILKTERLGHGYHTLEDQALYNRLRQENMHFEICPWSSYLTGAWKPDTEHAVIRLKNDQANYSLNTDDPLIFKSTLDTDYQMTKRDMGFTEEEFKRLNINAAKSSFLPEDEKRELLDLLYKAYGMPPSASAGQNLSGSGSWSHPQFEK
modifications: Strep-tag; mature ADA1 protein; mature ADA1-linker-Strep
Plasma incubated mean adenosine deaminase activity ([9]; 0 hr): 71,663.6 mU/mL | PBS incubated mean adenosine deaminase activity ([9]; 0 hr): 61,077.0 mU/mL | Plasma incubated mean adenosine deaminase activity ([9]; 4 hr): 46,772.1 mU/mL | PBS incubated mean adenosine deaminase activity ([9]; 4 hr): 59,544.8 mU/mL | activity retained in PBS/BSA control ([9]; 24 hours): greater than 80% | activity retained after treatment with plasma ([9]; 24 hours, mouse plasma): less than 1% | Plasma incubated mean adenosine deaminase activity ([9]; 24 hr): 673.6 mU/mL | PBS incubated mean adenosine deaminase activity ([9]; 24 hr): 50,287.9 mU/mL
